Measured values as given in PMC11800091 (iScience, 2025).
Each block holds one molecule with its values, some of them ahead of it.

Assays:
[1] = molecular target: human immunodeficiency virus type 1 JR-CSF Fc-gp120 protein (HIV-1 JR-CSF) (UniProt P20871); test: BLI
[2] = molecular target: human immunodeficiency virus type 1 JR-CSF Fc-gp120 protein (HIV-1 JR-CSF, UniProt P20871); test: BLI

Kd [1]: 1.92 nM
Molecule: LPETG sortag-J3 nanobody (VHH)

Kd [2]: 3.33 nM
B1: 3E3 nanobody (VHH)
VHH: EVQLVESGGGLVQPGGSLRLSCAASQFTLESYAIGWFRQAPGKDSEGVACISSSTYYADSVKGRFTISRDNAKNTVYLQMESLKPEDTAVYHCATSGAGSYCTLRAFGSWGQGTQVTVSS

Kd [2]: 2.51 nM
B2: LPETG sortag-3E3 nanobody (VHH)
VHH: B1 VHH
